This series relates to Escherichia coli TOP10. Description: shrunken log2 fold change of peptide-encoding DNA abundance (4.5 h post-induction vs induction); higher = less antimicrobial activity (less host growth inhibition). As to conditions: time post-induction: 4.5 h; library: site-saturation at positions 5, 18, 19, 20.
Regarding RRIRNRPPRLPRPRPRPNQRPRP, the “shrunken log2 fold change” value was 0.0166.
The same measure for RRIRRRPPRLPRPRPRPGHNPRP: 0.06.
The same measure for RRIRGRPPRLPRPRPRPLDDPRP: 1.09.
The same measure for RRIRPRPPRLPRPRPRPCSDPRP: -0.131.
In the case of RRIRVRPPRLPRPRPRPGDHPRP, the “shrunken log2 fold change” value was -0.0257.
In the case of RRIRYRPPRLPRPRPRPCHVPRP, the “shrunken log2 fold change” value was -0.0447.
With RRIRSRPPRLPRPRPRPFTKPRP the figure was -0.202; with RRIRSRPPRLPRPRPRPPVWPRP, 0.48; with RRIRNRPPRLPRPRPRPHYQPRP, -0.568.
With RRIRHRPPRLPRPRPRPDSVPRP the figure was -0.117.
The same measure for RRIRNRPPRLPRPRPRPHAVPRP: 0.00516; for RRIRGRPPRLPRPRPRPHTDPRP: 0.103; for RRIRRRPPRLPRPRPRPGWCPRP: 0.422.
For the sequence RRIRERPPRLPRPRPRPNYWPRP, the “shrunken log2 fold change” value is -0.344.
With RRIRLRPPRLPRPRPRPLRQPRP the figure was 0.385.
With RRIRWRPPRLPRPRPRPFPMPRP the figure was -0.111; with RRIRYRPPRLPRPRPRPCAVPRP, -0.269.
With RRIRDRPPRLPRPRPRPWPCPRP the figure was 0.462.
On to RRIRCRPPRLPRPRPRPTHSPRP, for which the “shrunken log2 fold change” value came to 0.288.
On to RRIRQRPPRLPRPRPRPTEVPRP, for which the “shrunken log2 fold change” value is -0.018.
The same measure for RRIRARPPRLPRPRPRPAQMPRP: 0.743; for RRIRIRPPRLPRPRPRPAKNPRP: 2.21; for RRIRARPPRLPRPRPRPRKIPRP: 0.429.
With RRIRGRPPRLPRPRPRPQHWPRP the figure was 0.165; with RRIRHRPPRLPRPRPRPNWSPRP, -0.0165; with RRIRDRPPRLPRPRPRPWLFPRP, 0.0977.
RRIRARPPRLPRPRPRPRNAPRP: the “shrunken log2 fold change” value was determined as 0.485.
Consider RRIRNRPPRLPRPRPRPVLCPRP, for which the “shrunken log2 fold change” value came out at 0.0343.
The same measure for RRIRMRPPRLPRPRPRPICGPRP: 0.237.
With RRIRFRPPRLPRPRPRPDYAPRP the figure was -1.13; with RRIRDRPPRLPRPRPRPCEDPRP, -0.0105.
With RRIRQRPPRLPRPRPRPLLSPRP the figure was 0.00947; with RRIRCRPPRLPRPRPRPHEEPRP, 0.0524; with RRIRYRPPRLPRPRPRPHRPPRP, 0.0424.
For RRIRRRPPRLPRPRPRPIPRPRP, the “shrunken log2 fold change” value was found to be 0.625.
Consider RRIRNRPPRLPRPRPRPWCQPRP, for which the “shrunken log2 fold change” value is -0.0618.
The same measure for RRIRQRPPRLPRPRPRPEMAPRP: -0.0608; for RRIRERPPRLPRPRPRPEKCPRP: -0.00149; for RRIRRRPPRLPRPRPRPCGWPRP: 0.776.
In the case of RRIRQRPPRLPRPRPRPFDVPRP, the “shrunken log2 fold change” value was 0.028.
On to RRIRNRPPRLPRPRPRPYTYPRP, for which the “shrunken log2 fold change” value was -0.68.
The same measure for RRIRTRPPRLPRPRPRPGCKPRP: -0.161; for RRIRIRPPRLPRPRPRPYTWPRP: -0.891; for RRIRQRPPRLPRPRPRPPYQPRP: -0.216.
Regarding RRIRTRPPRLPRPRPRPARFPRP, the “shrunken log2 fold change” value was 0.128.
The same measure for RRIRYRPPRLPRPRPRPGWHPRP: 0.00731; for RRIRLRPPRLPRPRPRPNEHPRP: -0.175.
The same measure for RRIRDRPPRLPRPRPRPVEPPRP: 0.0157; for RRIRNRPPRLPRPRPRPIWDPRP: -0.14; for RRIRVRPPRLPRPRPRPRLHPRP: 0.0296.
With RRIRCRPPRLPRPRPRPAEVPRP the figure was -0.106; with RRIRYRPPRLPRPRPRPHRGPRP, -0.192.
Consider RRIRHRPPRLPRPRPRPDLWPRP, for which the “shrunken log2 fold change” value is 0.0395.
With RRIRPRPPRLPRPRPRPQKSPRP the figure was 0.0462; with RRIRIRPPRLPRPRPRPVSPPRP, 0.188; with RRIRSRPPRLPRPRPRPNHGPRP, -0.4.
The same measure for RRIRRRPPRLPRPRPRPKANPRP: 0.264; for RRIRYRPPRLPRPRPRPYTRPRP: -1.51; for RRIRARPPRLPRPRPRPQTGPRP: 0.242.
The same measure for RRIRDRPPRLPRPRPRPPYEPRP: -0.0831; for RRIRFRPPRLPRPRPRPQDWPRP: -0.12.
RRIRTRPPRLPRPRPRPRYLPRP: the “shrunken log2 fold change” value is -0.131.
With RRIRPRPPRLPRPRPRPDFHPRP the figure was -0.26; with RRIRKRPPRLPRPRPRPDTVPRP, 0.00611.
The same measure for RRIRGRPPRLPRPRPRPHCYPRP: 0.0539; for RRIRPRPPRLPRPRPRPKWYPRP: -0.161.
With RRIRTRPPRLPRPRPRPDHCPRP the figure was -0.116; with RRIRCRPPRLPRPRPRPVSLPRP, -0.379.
As to RRIRHRPPRLPRPRPRPVNPPRP, the “shrunken log2 fold change” value is -0.307.
With RRIRCRPPRLPRPRPRPYYGPRP the figure was -0.199; with RRIRGRPPRLPRPRPRPWSHPRP, -0.155; with RRIRKRPPRLPRPRPRPDHNPRP, -0.276.
As to RRIRDRPPRLPRPRPRPKYVPRP, the “shrunken log2 fold change” value was found to be 0.13.
With RRIRKRPPRLPRPRPRPSWKPRP the figure was 0.0521; with RRIRWRPPRLPRPRPRPKYKPRP, -0.558.
Take RRIRHRPPRLPRPRPRPPLSPRP: the “shrunken log2 fold change” value is -0.0738.
With RRIRDRPPRLPRPRPRPVDFPRP the figure was 0.0775; with RRIRIRPPRLPRPRPRPVYVPRP, -1.58; with RRIRRRPPRLPRPRPRPDCNPRP, 0.311.
Turning to RRIRCRPPRLPRPRPRPLWNPRP, the “shrunken log2 fold change” value was -0.208.
As for RRIRFRPPRLPRPRPRPTATPRP, the “shrunken log2 fold change” value is 0.355.
The same measure for RRIRMRPPRLPRPRPRPKAGPRP: 1.3; for RRIRTRPPRLPRPRPRPYDMPRP: 0.0197; for RRIRARPPRLPRPRPRPKAGPRP: 0.213.
Take RRIRGRPPRLPRPRPRPAWTPRP: the “shrunken log2 fold change” value was determined as 0.619.
The same measure for RRIRHRPPRLPRPRPRPRGKPRP: -0.241; for RRIRERPPRLPRPRPRPCHCPRP: -0.344; for RRIRWRPPRLPRPRPRPYACPRP: -0.355.
The same measure for RRIRYRPPRLPRPRPRPISVPRP: -0.534; for RRIRSRPPRLPRPRPRPCNYPRP: -0.455; for RRIRTRPPRLPRPRPRPNQNPRP: -0.168.
The same measure for RRIRLRPPRLPRPRPRPNEGPRP: 0.00337; for RRIRERPPRLPRPRPRPKKHPRP: -0.55.
Turning to RRIRPRPPRLPRPRPRPAFTPRP, the “shrunken log2 fold change” value was -0.0147.
For RRIRRRPPRLPRPRPRPLWDPRP, the “shrunken log2 fold change” value worked out at 0.56.
The same measure for RRIRGRPPRLPRPRPRPWLPPRP: -0.0942.
With RRIRPRPPRLPRPRPRPHGLPRP the figure was 0.026; with RRIRPRPPRLPRPRPRPFITPRP, -0.678.
The same measure for RRIRKRPPRLPRPRPRPSLFPRP: 0.125; for RRIRKRPPRLPRPRPRPKLRPRP: -0.0198.
On to RRIRIRPPRLPRPRPRPIELPRP, for which the “shrunken log2 fold change” value was 0.0658.
With RRIRQRPPRLPRPRPRPWNKPRP the figure was -0.34.
With RRIRCRPPRLPRPRPRPRVMPRP the figure was 0.278; with RRIRRRPPRLPRPRPRPTDYPRP, -0.00271; with RRIRSRPPRLPRPRPRPTEGPRP, 0.139.
On to RRIRYRPPRLPRPRPRPFPQPRP, for which the “shrunken log2 fold change” value is -0.137.
Regarding RRIRLRPPRLPRPRPRPGSKPRP, the “shrunken log2 fold change” value was -0.559.
The same measure for RRIRWRPPRLPRPRPRPPCHPRP: 0.0912; for RRIRNRPPRLPRPRPRPESVPRP: -0.145.
With RRIRNRPPRLPRPRPRPWWRPRP the figure was -0.0647; with RRIRCRPPRLPRPRPRPGAQPRP, 0.312; with RRIRKRPPRLPRPRPRPAIKPRP, 0.191.
Consider RRIRNRPPRLPRPRPRPKGFPRP, for which the “shrunken log2 fold change” value was -0.0324.
For the sequence RRIRQRPPRLPRPRPRPAYCPRP, the “shrunken log2 fold change” value was -0.043.
The same measure for RRIRGRPPRLPRPRPRPDNIPRP: 0.119.
With RRIRSRPPRLPRPRPRPLSRPRP, the “shrunken log2 fold change” value came out at 0.0301.
With RRIRQRPPRLPRPRPRPVGKPRP the figure was -0.14; with RRIRSRPPRLPRPRPRPMAWPRP, -0.00175; with RRIRRRPPRLPRPRPRPDYYPRP, -0.0675.
For the sequence RRIRVRPPRLPRPRPRPGEMPRP, the “shrunken log2 fold change” value was 0.329.
With RRIRLRPPRLPRPRPRPGVKPRP the figure was 0.108; with RRIRGRPPRLPRPRPRPQWPPRP, 0.475.
The same measure for RRIRQRPPRLPRPRPRPCHAPRP: -0.126; for RRIRGRPPRLPRPRPRPSDTPRP: 0.116; for RRIRIRPPRLPRPRPRPVAYPRP: -0.0713.

Source of the values: the supplement of paper PMC9112550, “Optimization of the antimicrobial peptide Bac7 by deep mutational scanning” (BMC Biology, 2022).
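Further: peptides expressed intracellularly from a pBAD plasmid library in pooled LB shake-flask culture, induced with 0.3% L-arabinose, DNA abundance read by NGS, three biological replicates, DESeq2 with apeglm shrinkage.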
